78 sequences from the supplement of paper PMC7877785 can be followed below.

The series can be described thus: self-splicing fitness, log relative to wild type (ln ratio); higher = more splicing; Tetrahymena group I intron in knt gene, E. coli kanamycin selection, DiMSum; sequences stand for … in CUCUCU…GGAGGGAAAAGUUAUCAGGCAUGCACCUGGUAGCUAGUCUUUAAACCAAUAGAUUGCAUCGGUUUAAAAGGCAAGACCGUCAAAUUGCGGGAAAGGGGUCAACAGCCGUUCAGUACCAAGUCUCAGGGGAAACUUUGAGAUGGCCUUGCAAAGGGUAUGGUAAUAAGCUGACGGACAUGGUCCUAACCACGCAGCCAAGUCCUAAGUCAACAGAUCUUCUGUUGAUAUGGAUGCAGUUCACAGACUAAAUGUCGGUCGGGGAAGAUGUAUUCUUCUCAUAAGAUAUAGUCGGACCUCUCCUUAAUGGGAGCUAGCGGAUGAAGUGAUGCAACACUGGAGCCGCUGGGAACUAAUUUGUAUGCGAAAGUAUAUUGAUUAGUUUUGGAGUACUCGUGGUCG
The method, boiled down:
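Six replicate transformations of E. coli BL21(DE3) with a pET-22b(+) library were grown overnight at 37°C or 30°C. The library randomised all eight P1ex-region intron nucleotides, the intron lying in the knt kanamycin-resistance gene, and plates were LB agar with or without 25 μg/mL kanamycin plus 100 μg/mL carbenicillin, 50 μM IPTG and 0.2% rhamnose. Pooled colonies were amplicon-sequenced on an Illumina HiSeq 2500, and fitness is the DiMSum error-weighted combination of wild-type-normalised replicate fold changes, kanamycin versus none.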

± gives the uncertainty stated by the source.

UGCCAGCAAUAUUACGGCGA: the “self-splicing fitness (ln)” value was -0.122 ± 0.072 (30 °C) and 0.211 ± 0.093 (37 °C). For UGCCAGCAAUAUUACGGGAG the same measures were -2.75 ± 0.11 and -0.763 ± 0.1. For UGCCAGCAAUAUUACGGGUG, the “self-splicing fitness (ln)” value is, setting by setting: (30 °C) -2.99 ± 0.13; (37 °C) -2.98 ± 0.17. For UGCCAGCAAUAUUACGGUAA the same measures were -1.15 ± 0.055 and -0.9 ± 0.059. Consider UGCCAGCAAUAUUACGGUAC, for which the “self-splicing fitness (ln)” value (37 °C) is -2.89 ± 0.47. Regarding UGCCAGCAAUAUUACGUAAC, the “self-splicing fitness (ln)” value is, setting by setting: (30 °C) -2.39 ± 0.18; (37 °C) -2.36 ± 0.2. On to UGCCAGCAAUAUUACGUACA, for which the “self-splicing fitness (ln)” value is, setting by setting: (30 °C) -0.269 ± 0.076; (37 °C) 0.081 ± 0.089.

For the sequence UGCCAGCAAUAUUACGUACG, the “self-splicing fitness (ln)” value by setting is: (30 °C) -0.444 ± 0.061; (37 °C) 0.435 ± 0.084. For UGCCAGCAAUAUUACGUCCA the same measures were -0.0851 ± 0.076 and 0.335 ± 0.09. On the same counts, the results for UGCCAGCAAUAUUACGUCGG are -4.72 ± 0.41 and -2.68 ± 0.25.

As to UGCCAGCAAUAUUACGUGAU, the “self-splicing fitness (ln)” value was -2.59 ± 0.14 (30 °C) and -1.6 ± 0.099 (37 °C). On to UGCCAGCAAUAUUACGUUAA, for which the “self-splicing fitness (ln)” value was -2.48 ± 0.15 (30 °C) and -0.729 ± 0.095 (37 °C). For UGCCAGCAAUAUUACGUUUU the same measures were -3.79 ± 0.18 and -2.56 ± 0.2. On the same counts, the results for UGCGAGCAAUAUUACGAAAG are -2.87 ± 0.29 and -2.87 ± 0.43.

Consider UGCGAGCAAUAUUACGAAGG, for which the “self-splicing fitness (ln)” value was -1.75 ± 0.2 (30 °C) and -1.91 ± 0.44 (37 °C).

UGCGAGCAAUAUUACGACGU: the “self-splicing fitness (ln)” value reads like this: (30 °C) -2.92 ± 0.25; (37 °C) -0.731 ± 0.17. On the same counts, the results for UGCGAGCAAUAUUACGACUC are -2.71 ± 0.27 and -2.25 ± 0.25.

For the sequence UGCGAGCAAUAUUACGCAUU, the “self-splicing fitness (ln)” value (30 °C) is -5.15 ± 0.34 and the “self-splicing fitness (ln)” value (37 °C) was -3.1 ± 0.23.

Take UGCGAGCAAUAUUACGCGGG: the “self-splicing fitness (ln)” value (30 °C) is -2.61 ± 0.3. With UGCGAGCAAUAUUACGCUGU, the “self-splicing fitness (ln)” value runs as follows: (30 °C) -3.76 ± 0.21; (37 °C) -2.24 ± 0.31. As to UGCGAGCAAUAUUACGGACC, the “self-splicing fitness (ln)” value (30 °C) was -2.33 ± 0.19. In the case of UGCGAGCAAUAUUACGGCAG, the “self-splicing fitness (ln)” value by setting is: (30 °C) -1.33 ± 0.15; (37 °C) -1.59 ± 0.21. UGCGAGCAAUAUUACGGCUG: the “self-splicing fitness (ln)” value is -1.04 ± 0.1 (30 °C) and -0.349 ± 0.15 (37 °C). UGCGAGCAAUAUUACGGGGU: the “self-splicing fitness (ln)” value reads like this: (30 °C) -2.77 ± 0.2; (37 °C) -3.12 ± 0.35. For UGCGAGCAAUAUUACGUGCA the same measures were -2.46 ± 0.2 and -1.35 ± 0.21.

Take UGCGAGCAAUAUUACGUUAG: the “self-splicing fitness (ln)” value reads like this: (30 °C) -2.68 ± 0.27; (37 °C) -2.01 ± 0.33. For UGCUAGCAAUAUUACGAACG the same measures were -0.171 ± 0.097 and 0.803 ± 0.12. For UGCUAGCAAUAUUACGACUU the same measures were -0.801 ± 0.2 and -0.152 ± 0.17. For UGCUAGCAAUAUUACGAGAC the same measures were -3.12 ± 0.35 and -2.11 ± 0.36. For UGCUAGCAAUAUUACGAGGA, the “self-splicing fitness (ln)” value was -2.99 ± 0.26 (30 °C) and -1.62 ± 0.17 (37 °C).

Regarding UGCUAGCAAUAUUACGAGUG, the “self-splicing fitness (ln)” value by setting is: (30 °C) -1.98 ± 0.12; (37 °C) -1.08 ± 0.11. For UGCUAGCAAUAUUACGAUAG the same measures were -2.49 ± 0.1 and -0.62 ± 0.1. Regarding UGCUAGCAAUAUUACGAUUA, the “self-splicing fitness (ln)” value (30 °C) was -0.493 ± 0.095 and the “self-splicing fitness (ln)” value (37 °C) was -0.286 ± 0.096. On the same counts, the results for UGCUAGCAAUAUUACGCAGA are -4.03 ± 0.31 and -2.26 ± 0.17. Regarding UGCUAGCAAUAUUACGCAUA, the “self-splicing fitness (ln)” value was -2.58 ± 0.18 (30 °C) and -1.37 ± 0.14 (37 °C). Consider UGCUAGCAAUAUUACGCCUA, for which the “self-splicing fitness (ln)” value was -0.454 ± 0.15 (30 °C) and -0.0492 ± 0.15 (37 °C). Turning to UGCUAGCAAUAUUACGCUCG, the “self-splicing fitness (ln)” value was -1.2 ± 0.14 (30 °C) and -0.909 ± 0.17 (37 °C).

Take UGCUAGCAAUAUUACGCUUG: the “self-splicing fitness (ln)” value reads like this: (30 °C) -3.74 ± 0.21; (37 °C) -0.96 ± 0.13. For UGCUAGCAAUAUUACGGAAA the same measures were -2.19 ± 0.27 and -2.19 ± 0.31. On the same counts, the results for UGCUAGCAAUAUUACGGACA are -0.668 ± 0.098 and 0.41 ± 0.12. Consider UGCUAGCAAUAUUACGGAGA, for which, under “37 °C”, the “self-splicing fitness (ln)” value is -2 ± 0.22. For UGCUAGCAAUAUUACGGAUU, the “self-splicing fitness (ln)” value is, setting by setting: (30 °C) -1.7 ± 0.14; (37 °C) -2.02 ± 0.13. On the same counts, the results for UGCUAGCAAUAUUACGGCCU are 0.151 ± 0.14 and 0.383 ± 0.16. Turning to UGCUAGCAAUAUUACGGCUG, the “self-splicing fitness (ln)” value was -0.317 ± 0.15 (30 °C) and -0.46 ± 0.18 (37 °C). In the case of UGCUAGCAAUAUUACGGGAC, the “self-splicing fitness (ln)” value by setting is: (30 °C) -2.52 ± 0.2; (37 °C) -1.92 ± 0.18. On the same counts, the results for UGCUAGCAAUAUUACGGUAA are -1.03 ± 0.15 and -1.47 ± 0.12. For UGCUAGCAAUAUUACGUCCU the same measures were -1.19 ± 0.12 and -0.143 ± 0.14. UGCUAGCAAUAUUACGUCGC: the “self-splicing fitness (ln)” value is, setting by setting: (30 °C) -3.37 ± 0.2; (37 °C) -2.65 ± 0.41. On the same counts, the results for UGCUAGCAAUAUUACGUGAC are -3.39 ± 0.35 and -2.56 ± 0.41. For UGCUAGCAAUAUUACGUGUC the same measures were -3.7 ± 0.42 and -2.72 ± 0.38. On the same counts, the results for UGCUAGCAAUAUUACGUUCA are -0.255 ± 0.076 and 0.0245 ± 0.12. As for UGGAAGCAAUAUUACGAACU, the “self-splicing fitness (ln)” value was 0.00939 ± 0.14 (30 °C) and -0.029 ± 0.13 (37 °C). On the same counts, the results for UGGAAGCAAUAUUACGACCC are -0.0757 ± 0.24 and -0.147 ± 0.25. For UGGAAGCAAUAUUACGACGU the same measures were -1.62 ± 0.15 and -0.761 ± 0.2. Take UGGAAGCAAUAUUACGAUAC: the “self-splicing fitness (ln)” value reads like this: (30 °C) -3.37 ± 0.49; (37 °C) -2.54 ± 0.48.

Consider UGGAAGCAAUAUUACGCCGA, for which the “self-splicing fitness (ln)” value runs as follows: (30 °C) -1.53 ± 0.26; (37 °C) -0.201 ± 0.27. For the sequence UGGAAGCAAUAUUACGCCUU, the “self-splicing fitness (ln)” value (30 °C) is -2.28 ± 0.31.

With UGGAAGCAAUAUUACGCGGG, the “self-splicing fitness (ln)” value is, setting by setting: (30 °C) -3.32 ± 0.24; (37 °C) -1.29 ± 0.22. On the same counts, the results for UGGAAGCAAUAUUACGCUAG are -0.433 ± 0.1 and -0.523 ± 0.17. For the sequence UGGAAGCAAUAUUACGCUCU, the “self-splicing fitness (ln)” value (37 °C) is -1.45 ± 0.32. Consider UGGAAGCAAUAUUACGGCGA, for which the “self-splicing fitness (ln)” value was -0.779 ± 0.12 (30 °C) and -0.28 ± 0.16 (37 °C).

In the case of UGGAAGCAAUAUUACGGGCG, the “self-splicing fitness (ln)” value runs as follows: (30 °C) -0.122 ± 0.1; (37 °C) -0.0506 ± 0.11. On the same counts, the results for UGGAAGCAAUAUUACGGGGG are -2.52 ± 0.32 and -2.89 ± 0.49. Consider UGGAAGCAAUAUUACGGGUC, for which, under “37 °C”, the “self-splicing fitness (ln)” value is -3.04 ± 0.38.

UGGAAGCAAUAUUACGGUUG: the “self-splicing fitness (ln)” value is, setting by setting: (30 °C) -1.46 ± 0.1; (37 °C) -0.621 ± 0.13. For UGGAAGCAAUAUUACGUCUA the same measures were -0.281 ± 0.15 and -0.741 ± 0.18. For UGGAAGCAAUAUUACGUGCU the same measures were -2.92 ± 0.19 and -1.7 ± 0.17. For UGGAAGCAAUAUUACGUGUA the same measures were -2.12 ± 0.099 and -0.482 ± 0.1. For UGGAAGCAAUAUUACGUGUU, the “self-splicing fitness (ln)” value (30 °C) was -3.39 ± 0.16 and the “self-splicing fitness (ln)” value (37 °C) was -2.7 ± 0.17. With UGGAAGCAAUAUUACGUUCA, the “self-splicing fitness (ln)” value by setting is: (30 °C) -0.654 ± 0.069; (37 °C) 0.00518 ± 0.092. On the same counts, the results for UGGCAGCAAUAUUACGACAG are -1.02 ± 0.087 and 0.224 ± 0.11. Take UGGCAGCAAUAUUACGACUG: the “self-splicing fitness (ln)” value is -1.01 ± 0.071 (30 °C) and -0.812 ± 0.1 (37 °C). Regarding UGGCAGCAAUAUUACGAGAU, the “self-splicing fitness (ln)” value (30 °C) was -1.46 ± 0.21. Same read-out and setting: to UGGCAGCAAUAUUACGAGGC belongs -2.12 ± 0.2. In the case of UGGCAGCAAUAUUACGAGGU, the “self-splicing fitness (ln)” value (30 °C) is -3.29 ± 0.23 and the “self-splicing fitness (ln)” value (37 °C) was -2.53 ± 0.3.

As for UGGCAGCAAUAUUACGAGUA, the “self-splicing fitness (ln)” value (30 °C) was -1.75 ± 0.15 and the “self-splicing fitness (ln)” value (37 °C) is -1.46 ± 0.13.

Regarding UGGCAGCAAUAUUACGAUUC, where the note is “37 °C”, the “self-splicing fitness (ln)” value was -1.46 ± 0.32. For UGGCAGCAAUAUUACGAUUG, the “self-splicing fitness (ln)” value reads like this: (30 °C) -1.07 ± 0.074; (37 °C) 0.135 ± 0.093.
